The test addresses SARS-CoV-2 BA.4/5+K444T Spike on pseudovirus (SARS-CoV-2), P0DTC2. The experiment in a line: cell-based or functional assay.

B1: AB-1 (antibody, V domains shown)
VH: EVQLVESGAEVKKPGESLKISCKGSGYTFTRYWIGWVRQMPGKGLEWMGIIYPGDSDVRYSPSFQGHVTISADKSISTAYLQWNSLKASDTAMYYCARLPQYCSKGVCYRWFDPWGQGTLVTVSS
VL: EIVLTQSPSSVSASVGDRVTITCRASQGISSWLAWYQQKPGKAPKLLIYAASSLQSGVPSRFSGSGSGTDFTLTISSLQPEDFATYYCQQGHSFPYTFGQGTNLEIK
Turning to B1, the IC50, pseudovirus neutralization came to 9.4 ng/mL.

The record behind these values is patent US20240360203A1.
